Reference: US12077609B2, “Variable lymphocyte receptors that target the brain extracellular matrix and methods of use” (Wisconsin Alumni Research Foundation, priority 2018, dated 2024)

Tests used:
bEnd.3 ECM [1] = experiment: Affinity measurement of purified VLR on bEnd.3 ECM (ELISA, one-site equilibrium binding model); design: species or system mouse; conditions: three replicates, monomeric equilibrium binding model; read-out: Monomeric dissociation constant (Kd) for binding to bEnd.3 ECM
Description: To characterize VLR affinity for bEnd.3 ECM, dilutions of purified VLR were incubated with ECM. P1C10 VLR was diluted using a sixfold dilution scheme from 10 μM to 0.21 nM and then incubated with bEnd.3 ECM. Wells were washed five times with PBS+0.05% Tween 20 and then inubcated with anti-myc 9E10, 1:750, (BioLegend) and goat anti-mouse IgG modified with HRP. Wells were washed seven times with PBS+0.05% Tween 20 and then incubated with TMB substrate. Reaction was stopped after 15 min by acidification with 1 M HCl. Absorbance at 450 nm was quantified, and data were fit to a one-site equilibrium binding model to determine Kd as previously described (43). The amino acid sequence for VLR P1C10 is […]

bEnd.3 ECM [2] = experiment: ELISA-based screen of comparative VLR binding to bEnd.3 and 3T3 ECM; design: species or system mouse; conditions: VLR reduced off yeast surface; anti-c-myc detection
Source text: Brain ECM-binding VLRs were identified by mining a yeast surface display library of VLRs. The library was generated from the VLR repertoire of lamprey immunized with mechanically isolated murine brain microvessel plasma membrane preparations that contained associated brain ECM (20). The library was first enriched for ECM binders via two rounds of biopanning on decellularized ECM generated by cultured mouse brain endothelial cells (bEnd.3 cell line). Next, we sought to identify ECM-binding clones that preferentially bound bEnd.3 ECM compared to control mouse fibroblast ECM (3T3 cell line). For this analysis, we picked individual yeast clones into 96-well plates and then expanded and induced them for VLR display. To enable moderate throughput analysis of the clones and avoid cumbersome subcloning of many VLR clones, we removed the VLRs directly from yeast surface via reduction. After removal, we evaluated the comparative binding of VLRs to bEnd.3 and 3T3 ECM via ELISA screening (FIG. 1A). […]
The VLR YSD library underwent two rounds of biopanning against bEnd.3 ECM to enrich for brain ECM-binding clones as previously described (20, 42). […] VLR binding was detected by incubation with one-step 3,3′,5,5′-tetramethylbenzidine (TMB) substrate for 15 to 30 min to develop signal. The reaction was stopped via acidification with 1 M HCl and quantified using absorbance signal at 450 nm. […]

U87 cells = experiment: In vitro U87 cytotoxicity assay on bEnd.3 ECM (CellTiter-Glo); assay type: cell-based, human; conditions: VLR-conjugated doxorubicin-loaded liposomes bound to bEnd.3 ECM, 2 h incubation, unbound washed, 72 hours culture; read-out: EC50, U87 cell viability as a function of doxorubicin concentration
Source text: EC50 calculations were made using GraphPad software suite. […] Data are presented as mean pixel intensity±SD.

bEnd.3 ECM [3] = experiment: Biopanning of individual VLR-displaying yeast clones onto bEnd.3 and 3T3 ECM, bright-field microscopy; assay type: binding, mouse; conditions: yeast-displayed VLR, qualitative
Description: FIGS. 1A-1D. Identification of VLRs that bind brain ECM. (A) A yeast surface display VLR library underwent two rounds of biopanning to enrich for clones that bind bEnd.3 ECM. Next, individual clones were grown, induced and screened for comparative binding to bEnd.3 and 3T3 ECM. VLRs were released from the yeast surface using reducing agent and VLR binding to ECM was measured by probing the anti-c-myc epitope tag in an ELISA format. (B) Fold-changes in ECM binding. The ratio of bEnd.3 ECM/3T3 ECM ELISA signals is shown for 285 VLR clones. Lead clones P3A8 and P1C10 are noted. (C) Preferential binding to bEnd.3 ECM was evaluated for selected clones by biopanning individual clones onto bEnd.3 and 3T3 ECM. Yeast binding was qualitatively analyzed by bright field microscopy. Scale bars=100 μm. (D) VLRs were reduced off the yeast surface and used in labeling murine brain sections and detected via an anti-c-myc epitope tag antibody (green). Microvessels (magenta) were labeled with […] lectin, and cell nuclei (blue) were visualized with Hoechst 33342 stain. Scale bars=20 μm.
Brain ECM-binding VLRs were identified by mining a yeast surface display library of VLRs. […] After removal, we evaluated the comparative binding of VLRs to bEnd.3 and 3T3 ECM via ELISA screening (FIG. 1A). […]

Kd (bEnd.3 ECM [1]): 48.4 ± 6.05 nM | ELISA fold change (ratio of bEnd.3 ECM/3T3 ECM ELISA signals) (bEnd.3 ECM [2]): 4.2 fold
B1: P1C10: Lamprey variable lymphocyte receptor clone binding brain ECM, SEQ ID NO:1 (protein)
chain: ACPSQCSCDQTTVKCHSRRLTSVPAGIPTTTKILRLYSNQITKLEPGVFDHLVNLEKLYISWNQLSALPVGVFDKLTKLTHLSLGYNQLKSVPRGAFDNLKSLTHIWLLNNPWDCECSDILYLKNWIVQHASIVNLQGHGGVDNVKCSGTNTPVRAVTEASTSPSKCP
modifications: Synthetic- VLR clone P1C10
EC50 (U87 cells): 199 ± 1.7 nM | Yeast clone binding to bEnd.3 ECM compared to 3T3 ECM (bEnd.3 ECM [3]): bound selectively to bEnd.3 ECM compared to 3T3 ECM
